Test results published in the supplement of paper PMC5998384.

Experiments:
HeLa Kyoto [1] = test: solubility change mitosis vs G1/S (difference of NP-40 vs SDS log2 ratios) (log2 ratio difference); higher = more soluble in mitosis
HeLa Kyoto [2] = test: solubility in G1/S (NP-40 vs SDS abundance) (log2 ratio); higher = more soluble; details: cell cycle stage: G1/S
HeLa Kyoto [3] = test: melting temperature (median over replicates), in situ; higher = more thermally stable
HeLa Kyoto [4] = test: thermal stability score vs G1/S (z-score of summed log2 fold changes over temperatures); higher = more thermally stable than in G1/S
[5] = cell cycle stage: early G1 (4.5 h after nocodazole release)
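Wherever melting temperature (median over replicates), in situ is given: HeLa Kyoto cells synchronized by double thymidine or nocodazole block, proteins quantified by TMT10plex mass spectrometry, three independent biological replicates.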
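Wherever solubility change mitosis vs G1/S (difference of NP-40 vs SDS log2 ratios) is given: synchronized HeLa Kyoto cells (double thymidine block for G1/S, nocodazole release for mitosis), protein amounts in NP-40 versus SDS lysates quantified by mass spectrometry, three biological replicates.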
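Wherever solubility in G1/S (NP-40 vs SDS abundance) is given: HeLa Kyoto cells arrested at G1/S by double thymidine block, proteins quantified by TMT10plex mass spectrometry in mild NP-40 versus SDS extracts, three biological replicates.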
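Wherever thermal stability score vs G1/S (z-score of summed log2 fold changes over temperatures) is given: synchronized HeLa Kyoto cells, proteins quantified by TMT10plex mass spectrometry, three biological replicates, mitosis taken 0.5 h after nocodazole release, G1/S directly after double thymidine block.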

## MSDDDSRASTSSSSSSSSNQQTEKETNTPKKKESKVSMSKNSKLLSTSAKRIQKELADITLDPPPNCSAGPKGDNIYEWRSTILGPPGSVYEGGVFFLDITFTPEYPFKPPKVTFRTRIYHCNINSQGVICLDILKDNWSPALTISKVLLSICSLLTDCNPADPLVGSIATQYMTNRAEHDRMARQWTKRYAT [UBE2E1]
HeLa Kyoto [1]
  solubility change mitosis (log2): -0.151
HeLa Kyoto [2]
  solubility in G1/S (log2): 0.338
HeLa Kyoto [3]; cell cycle stage: G1/S
  melting temperature: 48.5 °C
HeLa Kyoto [3]; cell cycle stage: mitosis
  melting temperature: 49.5 °C
HeLa Kyoto [4]; [5]
  thermal stability score: 1.73
HeLa Kyoto [4]; cell cycle stage: mitosis
  thermal stability score: 3.2

## MAAPGPALCLFDVDGTLTAPRQKITKEMDDFLQKLRQKIKIGVVGGSDFEKVQEQLGNDVVEKYDYVFPENGLVAYKDGKLLCRQNIQSHLGEALIQDLINYCLSYIAKIKLPKKRGTFIEFRNGMLNVSPIGRSCSQEERIEFYELDKKENIRQKFVADLRKEFAGKGLTFSIGGQISFDVFPDGWDKRYCLRHVENDGYKTIYFFGDKTMPGGNDHEIFTDPRTMGYSVTAPEDTRRICELLFS [PMM2]
HeLa Kyoto [1]
  solubility change mitosis (log2): -0.0066
HeLa Kyoto [2]
  solubility in G1/S (log2): 0.526
HeLa Kyoto [3]; cell cycle stage: G1/S
  melting temperature: 53 °C
HeLa Kyoto [3]; cell cycle stage: mitosis
  melting temperature: 53.3 °C
HeLa Kyoto [4]; [5]
  thermal stability score: 12.5
HeLa Kyoto [4]; cell cycle stage: mitosis
  thermal stability score: 3.25

## MAASLRLLGAASGLRYWSRRLRPAAGSFAAVCSRSVASKTPVGFIGLGNMGNPMAKNLMKHGYPLIIYDVFPDACKEFQDAGEQVVSSPADVAEKADRIITMLPTSINAIEAYSGANGILKKVKKGSLLIDSSTIDPAVSKELAKEVEKMGAVFMDAPVSGGVGAARSGNLTFMVGGVEDEFAAAQELLGCMGSNVVYCGAVGTGQAAKICNNMLLAISMIGTAEAMNLGIRLGLDPKLLAKILNMSSGRCWSSDTYNPVPGVMDGVPSANNYQGGFGTTLMAKDLGLAQDSATSTKSPILLGSLAHQIYRMMCAKGYSKKDFSSVFQFLREEETF [HIBADH]
HeLa Kyoto [1]
  solubility change mitosis (log2): -0.0734
HeLa Kyoto [2]
  solubility in G1/S (log2): 0.469
HeLa Kyoto [3]; cell cycle stage: G1/S
  melting temperature: 55.4 °C
HeLa Kyoto [3]; cell cycle stage: mitosis
  melting temperature: 56.9 °C
HeLa Kyoto [4]; [5]
  thermal stability score: 0.844
HeLa Kyoto [4]; cell cycle stage: mitosis
  thermal stability score: -0.199

## EHBP1
HeLa Kyoto [1]
  solubility change mitosis (log2): -0.0155
HeLa Kyoto [2]
  solubility in G1/S (log2): 0.0745
HeLa Kyoto [3]; cell cycle stage: G1/S
  melting temperature: 50.3 °C
HeLa Kyoto [3]; cell cycle stage: mitosis
  melting temperature: 52.4 °C
HeLa Kyoto [4]; [5]
  thermal stability score: 0.393
HeLa Kyoto [4]; cell cycle stage: mitosis
  thermal stability score: 0.935

## MTLQWAAVATFLYAEIGLILIFCLPFIPPQRWQKIFSFNVWGKIATFWNKAFLTIIILLIVLFLDAVREVRKYSSVHTIEKSSTSRPDAYEHTQMKLFRSQRNLYISGFSLFFWLVLRRLVTLITQLAKELSNKGVLKTQAENTNKAAKKFMEENEKLKRILKSHGKDEECVLEAENKKLVEDQEKLKTELRKTSDALSKAQNDVMEMKMQSERLSKEYDQLLKEHSELQDRLERGNKKRL [BCAP29]
HeLa Kyoto [1]
  solubility change mitosis (log2): -0.00377
HeLa Kyoto [2]
  solubility in G1/S (log2): -0.242
HeLa Kyoto [3]; cell cycle stage: G1/S
  melting temperature: 55.3 °C
HeLa Kyoto [3]; cell cycle stage: mitosis
  melting temperature: 52.6 °C
HeLa Kyoto [4]; [5]
  thermal stability score: -4.11
HeLa Kyoto [4]; cell cycle stage: mitosis
  thermal stability score: -5.19

## MPLHQLGDKPLTFPSPNSAMENGLDHTPPSRRASPGTPLSPGSLRSAAHSPLDTSKQPLCQLWAEKHGARGTHEVRYVSAGQSVACGWWAFAPPCLQVLNTPKGILFFLCAAAFLQGMTVNGFINTVITSLERRYDLHSYQSGLIASSYDIAACLCLTFVSYFGGSGHKPRWLGWGVLLMGTGSLVFALPHFTAGRYEVELDAGVRTCPANPGAVCADSTSGLSRYQLVFMLGQFLHGVGATPLYTLGVTYLDENVKSSCSPVYIAIFYTAAILGPAAGYLIGGALLNIYTEMGRRTELTTESPLWVGAWWVGFLGSGAAAFFTAVPILGYPRQLPGSQRYAVMRAAEMHQLKDSSRGEASNPDFGKTIRDLPLSIWLLLKNPTFILLCLAGATEATLITGMSTFSPKFLESQFSLSASEAATLFGYLVVPAGGGGTFLGGFFVNKLRLRGSAVIKFCLFCTVVSLLGILVFSLHCPSVPMAGVTASYGGSLLPEGHLNLTAPCNAACSCQPEHYSPVCGSDGLMYFSLCHAGCPAATETNVDGQKVYRDCSCIPQNLSSGFGHATAGKCTSTCQRKPLLLVFIFVVIFFTFLSSIPALTATLRCVRDPQRSFALGIQWIVVRILGGIPGPIAFGWVIDKACLLWQDQCGQQGSCLVYQNSAMSRYILIMGLLYKVLGVLFFAIACFLYKPLSESSDGLETCLPSQSSAPDSATDSQLQSSV [SLCO4A1]
HeLa Kyoto [1]
  solubility change mitosis (log2): -0.143
HeLa Kyoto [2]
  solubility in G1/S (log2): 0.576
HeLa Kyoto [3]; cell cycle stage: G1/S
  melting temperature: 55.2 °C
HeLa Kyoto [3]; cell cycle stage: mitosis
  melting temperature: 56.9 °C
HeLa Kyoto [4]; [5]
  thermal stability score: -0.978
HeLa Kyoto [4]; cell cycle stage: mitosis
  thermal stability score: -0.221
